From publication PMC5283164

Legend:
[1] = molecular target: SNP-treated (S-nitrosylated) pea chloroplast 2-Cys Prx (Pisum sativum (pea)); test: SEC; Superdex-200 HR 10/30, 50 mM Tris-HCl pH 7.5, 150 mM NaCl; DTT-reduced protein incubated with 750 uM SNP, excess removed
[2] = molecular target: chloroplast 2-Cys Prx from pea (Pisum sativum), recombinant, not glutathionylated (Pisum sativum (pea)); test: SEC; Superdex-200 HR 10/30, room temperature, 50 mM Tris-HCl pH 7.5, 150 mM NaCl; protein (50 uM) reduced with 10 mM DTT for 30 min, excess DTT removed
[3] = molecular target: chloroplast 2-Cys Prx from pea (Pisum sativum), recombinant, not glutathionylated (Pisum sativum (pea)); test: SEC; Superdex-200 HR 10/30, room temperature, 50 mM Tris-HCl pH 7.5, 150 mM NaCl, 0.5 mL/min; untreated (native) protein
[4] = molecular target: glutathionylated pea mitochondrial Prx IIF (Cys59-SG, Cys84-SG) (Pisum sativum (pea)); test: SEC; Superdex-200 HR 10/30, 50 mM Tris-HCl pH 7.5, 150 mM NaCl; DTT-reduced protein incubated with 5 mM GSNO at room temperature (different incubation times for 2-Cys Prx), excess removed
[5] = molecular target: glutathionylated pea mitochondrial Prx IIF (Cys59-SG, Cys84-SG) (Pisum sativum (pea)); test: SEC; Superdex-200 HR 10/30, 50 mM Tris-HCl pH 7.5, 150 mM NaCl; DTT-reduced protein incubated with 5 mM GSSG at 4 C for 24 h, excess removed
[6] = molecular target: mitochondrial Prx IIF from pea (Pisum sativum), recombinant, not glutathionylated (Pisum sativum (pea)); test: SEC; Superdex-200 HR 10/30, room temperature, 50 mM Tris-HCl pH 7.5, 150 mM NaCl; protein (50 uM) reduced with 10 mM DTT for 30 min, excess DTT removed
[7] = molecular target: mitochondrial Prx IIF from pea (Pisum sativum), recombinant, not glutathionylated (Pisum sativum (pea)); test: SEC; Superdex-200 HR 10/30, room temperature, 50 mM Tris-HCl pH 7.5, 150 mM NaCl, 0.5 mL/min; untreated (native) protein

SNP-treated (S-nitrosylated) pea chloroplast 2-Cys Prx (enzyme)
stoichiometry N [1]: 10

chloroplast 2-Cys Prx from pea (Pisum sativum), recombinant, not glutathionylated (enzyme)
stoichiometry N [2]: 10
stoichiometry N [3]: 2

glutathionylated pea mitochondrial Prx IIF (Cys59-SG, Cys84-SG) (enzyme)
stoichiometry N [4]: 2
stoichiometry N [5]: 2

mitochondrial Prx IIF from pea (Pisum sativum), recombinant, not glutathionylated (enzyme)
stoichiometry N [6]: 2
stoichiometry N [7]: 6
